Experimental findings from the DeepSol protein solubility set are described below.

This series can be described thus: soluble on expression in E. coli; label from the status in PepcDB or PDB records.
Regarding “MSLELKYKIGFPSLYYPKISLADRIDAAAEKFGEKTAIISAEPKFPSEFPESMNFLEICEVTKKLASGISRKGVRKGEHVGVCIPNSIDYVMTIYALWRVAATPVPINPMYKSFELEHILNDSEATTLVVHSMLYENFKPVLEKTGVERVFVVGGEVNSLSEVMDSGSEDFENVKVNPEEDVALIPYTGGTTGMPKGVMLTHFNLAANALQLAVATGLSHMDTIVGCMPMFHSAEFGLVNLMVTVGNEYVVMGMFNQEMLAENIEKYKGTFSWAVPPALNVLVNTLESSNKTYDWSYLKVFATGAWPVAPALVEKLLKLAAEKCNNPRLRHNQIWGMTEACPMVTTNPPLRLDKSTTQGVPMSDIELKVISLEDGRELGVGESGEIVIRGPNIFKGYWKREKENQECWWYDEKGRKFFRTGDVGFIDEEGFLHFQDRVKEVIKYKGYTIAPFELEALLMKHEAVMDVAVIGKPDEEAGEVPKAFIVLKPEYRGKVDEEDIIEWVRERISGYKRVREVEFVEELPRTASGKLLRRLLREKEAEGHHHHHH”, the “soluble on expression in E. coli” value is recorded as “soluble”.

Turning to “MSLELLSNRLEFLREAERLKDVLRSAHTSSGRPESTAEHSWRLCLMALAFEDQLAGLDLGKVLRMCVVHDLGEAIHGDIPAVEQAAHPDKGEQERADLLQLTRHLDAPLRDRLLALWDEYERGESAEALAVKALDKLETLLQHTQGDNPADFDYAFNLDYGRRYTDRAPLFKTLRELLDARTRQRLAVRRDA”, the “soluble on expression in E. coli” value was “not soluble”.

Consider “MSLELSQKKWKSFKISEIFRIESCKCGNASLLEDGDDLFYRGAKKNDNGVIRRVKRIDSLVSKGNCIMFICDGDGSCGYTNYISDDFIGSTTTSVGYNENLNVYIGTFITTILDMHKYKYSHSRKYRNSLLNEILILPINNDGIPDWKWIEEYMKSLSGSINTQIYDIIDTADGDRNIVKFFINKIEASDFKLWLQDNANMDVNNQMSLKDVKWKGFKLSELFNIERGCRLKKSNRITGNTLLITAGKENHGIAMYVEPPMNSEGNLINKIYKDRLTIDMFCNSFYQSENFICDDNILVLIEKQKMTKNIKHFIATILSMDIYKFSFTRQYRQKDFNKHIIMLPINDKGNLDWEWIEEYMKSLPYSDKETRLFVNTIEGHHHHHH”, for which the “soluble on expression in E. coli” value is “soluble”.

With “MSLENIEKIEVRGIRASNKANINEKRFSNAVVDAVTAEDIGKFPDSDVGQALGRVPGVTVGRTFGQGSSVSIRGTDPLMTLTTLNGQNVASTGWYDQMNVDRSFNYSMLPSELIGGMEVYKSTQANLVEGGIGGTVIVKTRKPLDMDANSVFASVKGEYGSVNEDVAPELSGLYSWKNDDETFGVLLAGSYIDREYLRTGTEADLDWGGRSSVQPSSFLQEQERTALDATVQFRPTDNLEFGAHVLSLKLGADSIGANMYIETDTNWGEGASHCKQFNAAGVCTLSVTPESDPSNVFFQNWARKGEMTSDTFELNADYKGDGFAISGVAGKTKAEGGTQMSANFGYGWWGDKFGQVKWAGTVDATGKQIDINGRDMGFTQDQLDTTVGTSTWTGIKGPNSDEETYLQLDVDFDLDFGVINKFETGVRYTQHEFEKSEYRAIYDPAKKNEFKTSDLYSGTMKLGYDGWTIPKADLDAMINATESLVDQFAYSRSAYGLIEEDNFSMYGMFSFDGEGFRGNFGLRYIQTDVTSSGHIIDNSPADILGVNQGWSEEIHSISDSYSDVLPSFNISFDLAPDLILRMSAGQAITRPNYDNLFLSTSTGYPDDRRGNEEITYGNPGLKPMKSSQADLSLEYYYGDGNLVSATYFIKDISNFIVATTQYNQQIGVVNNDLETPADNWTVNNYENAGGGEIDGIELQLNHAFENGFGVNANYTYADGTAPAEVYTDNIGMFTESSKHSANLVGYWENDDFSARAAYNWRSEYMVREYGKYYGNRMHDAFGTLDVTLGWNVTEAIALRLEIVNLTAEDDVQYGAAGVGTEVKPALQDDFPAWSFKGETTYKLGASFVFEGHHHHHH”, the “soluble on expression in E. coli” value is “not soluble”.

As to “MSLENIMTLPKIKQVRAWFTGGATAEKGAGGGDYHDQGANHWIDDHIATPMSKYRDYEQLRQSFGINVLGTLVVEVEAENGQTGFAVSTAGEMGCFIVEKHLNRFIEGKCVSDIKLIHDQMLNATLYYSGSGGLVMNTISCVDLALWDLFGKVVGLPVYKLLGGAVRDEIQFYATGARPDLAKEMGFIGGKMPTHWGPHDGDAGIRKDAAMVADMREKCGEDFWLMLDCWMSQDVNYATKLAHACAPYNLKWIEECLPPQQYEGYRELKRNAPVGMMVTSGEHHGTLQSFRTLSETGIDIMQPDVGWCGGLTTLVEIAAIAKSRGQLVVPHGSSVYSHHAVITFTNTPFSEFLMTSPDCSTMRPQFDPILLNEPVPVNGRIHKSVLDKPGFGVELNRDCNLKRPYSHEGHHHHHH”, the “soluble on expression in E. coli” value was “soluble”.

As for “MSLENISQKYSCSIVPLAEKKIFSVNDGLNVILKSLEDTKAEDIVSIDIQGKSSLADYMVIASAHSQRHVSSVADHLLRTWKDSGYGRASVEGLTEGNWVLIDTGDIIIHLFRPEIRLFYNLEKMWLTPDLNNTKLALFGDH”, the “soluble on expression in E. coli” value is given as “not soluble”.

In the case of “MSLENKIIFVAGACGRIGKALCEKILLSKGIPILADINKECLNKLQENLETNFKTKLLSLELDITKQESLQTALQKSQERYGKIDAFVNSSYPFGKDWGKTPYYELKYEQICESLNLHLAGFMLAAQEFVKFFKQQGYGNIINLSSIMGVYAPKFENYEGTSMQSSLEYSVIKAGINHMSSWLAKELFNQNIRVNTLASGGILDNQNELFLKAYRKCCASKGMLDADDICGTLVFLLSDESKFITGQTLVVDDGWGLEGHHHHHH”, the “soluble on expression in E. coli” value is “soluble”.

Consider “MSLENLARFLSTTLKQLRQQRGWSLSRLAEATGVSKAMLGQIERNESSPTVATLWKIATGLNVPFSTFISPPQSATPSVYDPQQQAMVITSLFPYDPQLCFEHFSIQMASGAISESTPHEKGVIEHVVVIDGQLDLCVDGEWQTLNCGEGVRFAADVTHIYRNGGEQTVHFHSLIHYPRSEGGSHHHHHH”, for which the “soluble on expression in E. coli” value is given as “soluble”.

For the sequence “MSLENLKNIQPREDFNWEEFEAGGVHAAVSRQEQEAAYDKTLNTIKEKEVVMGRVTAINKREVVINVGYKSEGVVPATEFRYNPELKVGDEVEVYIENQEDKKGQLVLSHRKARAARSWERVNEALEKDEIVKGYVKCRTKGGMIVDVFGIEAFLPGSQIDVRPIRDYDAFVEKTMEFKIVKINQEYKNVVVSHKVLIEAELEQQKKEIIGKLEKGQVLEGIVKNITSYGVFIDLGGVDGLIHITDLSWGRVAHPEEIVQLDQKINVVILDFDEDRKRIALGLKQLMPHPWDALDSELKVGDKVKGKVVVMADYGAFVEIAQGVEGLIHVSEMSWTQHLRSAQDFLHVGDEVEAVILTLDREERKMSLGLKQLKPDPWADIETRFPVGSRHHARVRNFTNFGVFVEIEEGVDGLIHISDLSWTKKIKHPSEFTEVGADIEVQVIEIDKENRRLSLGHKQLEENPWDVFETVFTVGSIHEGTVIEVMDKGAVVSLPYGVEGFATPKHMVKEDGSQAVLEEKLPFKVIEFNKDAKRIIVSHSRVFEDEQKMAQREANAERKAEAKAAQKEAAAEAANPAQAVEKATLGDLGELAALKEKLSENEGHHHHHH”, the “soluble on expression in E. coli” value is recorded as “soluble”.

As for “MSLEPVFQLRKELNVFASEEGGATEDISSYAATADSSGITEWNTSDKFTNEMTLTENAKYTVSQLAPNLSFLPEQATDLTGAVDYYSGNALCNDRENLYIWPFNSPQRRLACIRIPLHEEHEVLSGAPLCCFTWPSAGEESEQTKSAGVLIVHANSGLVQFYEDIHTINSVSTLISKSRVIQLDLRFRDREHATDVVNAEPSGILVATSFGRLLLLTIRDSSGKPCLKLRQQLIKSQVGFFSGAMNTFKDIVAIKPSLITGKGERLLLTITRGGELKIWNVSATMSSYKRVEVNVYQQILESLQELYPFAYGSLQILDLNPLPSDPYSLLVLSSISDGKETYYILTAIKVEESSFSIFSVYRLNTYTKANDKKPRLFIAGDLENGEQPIEPQNVPVYLLFEDAVVITQAFTQLDSNYPLRKKWEDLVSLKEDSMVLGHGNDEKALYLINGNRGVVKIEAKMEPSEDYRFVKSHIDQAVYFSEGHHHHHH”, the “soluble on expression in E. coli” value is “soluble”.

For the sequence “MSLERAKNSDLLRESLTTEELLLISNFAKKKGADSVFFKIIEKLDLKFRLSSFGLEVKNFLMKSKLTGDELTKLTPEILKNKTYENKKFRAYNIHIPSAKTFIGRANSYLDYISKIKDKLVGLGFQEFDGPLVETEFFNNDALFMPQFHPSRDIKDVYYISDPSMQESLPEPYFSNVKLAHETGYATGSRGWRYSFSEDLSKRLVLRTHGTVLSAKQLINAKNPSRYFGVIRCFRYDQVDATHGVDFYQTEGIVIEDGVSIKTLLGLLEIFAKELAGATEIKYVPAYFPFTEPSIEIHVKHPVLGWFELGGSGIFRPEVTKPLGIDLPVIAWGIGIDRMALMHLGLNDLRDLFTYDIGDVILRRGKIDAKVRNEGHHHHHH”, the “soluble on expression in E. coli” value is listed as “not soluble”.

In the case of “MSLETLRIANRMLGYAAYEWRLSSLDGQKVMSSSGICLEVDTCLADERRYVSGENRPEMAIICSGIDVDQHVNKSVNAWLREAYNRGIAIGSLCTAAHILAQAGLLNGKRCAIHWENLPGFSEAFPQVEVYADLFEVDSNIYTCAGGTASLDMMLSLIGQDFGENLVNRVCEQQLTDRVREGHHHHHH”, the “soluble on expression in E. coli” value is on record as “not soluble”.

“MSLETQWTRMTADEAAEIIQHNDMVAFSGFTPAGSPKALPTAIARRANEQHEAKKPYQIRLLTGASISAAADDVLSDADAVSWRAPYQTSSGLRKKINQGAVSFVDLHLSEVAQMVNYGFFGDIDVAVIEASALAPDGRVWLTSGIGNAPTWLLRAKKVIIELNHYHDPRVAELADIVIPGAPPRRNSVSIFHAMDRVGTRYVQIDPKKIVAVVETNLPDAGNMLDKQNPMCQQIADNVVTFLLQEMAHGRIPPEFLPLQSGVGNINNAVMARLGENPEIPPFMMYSEVLQESVVHLLETGKISGASASSLTISADSLRKIYDNMDYFASRIVLRPQEISNNPEIIRRLGVIALNVGLEFDIYGHANSTHVAGVDLMNGIGGSGDFERNAYLSIFMAPSIAKEGKISTVVPMCSHVDHNEHSVKVIITEQGIADLRGLSPLQRARTIIDNCAHPMYRDYLHRYLENAPGGHIHHDLSHVFDLHRNLIATGSMLGEGHHHHHH”: the “soluble on expression in E. coli” value is “soluble”.

As to “MSLEYKVEDVSPVKKKVNVTVPVEEVDAALGAAIAMYRTSVNLDGFRKGKVPASIVENRFRKEIYAEATQDLVNVHINEIVTSLAVSPLSRIDFDGGELERGKEFSYTISFEVMPQFDLPDYEGFAVEQEKAVVDEKEVDEVIARIRRNMAELVPVAETRPGADGDVVVLDFAAFENGEPIEGVSAENFQLSLGEKQSLEDFENLVKTIPAGQEAEGPITFPDDFLNPDFAGKTVTMKVKVHAVKERRLPEIDDALAQKAGGFESMEKMRETVVTSYMQSREQLHKATAQKSMLDKLLKMVDFALPESMVDMYVGNLIEDMRVKMERQGRGLESLGKTPEQLREQVLPEAQQIARSQIFLLAAGRKEAVEVSEQEVDGQLQQLAMRSGQDFDTLKDYYVRNGLIFNLRDRLIADKAMDAIYAKANVTMVDPAPAEGHHHHHH”, the “soluble on expression in E. coli” value was “soluble”.

Take “MSLFHDVRFPVSLSFGARGGPERRTEIVTLANGAEERNTPWAHSRRRFDAGMGLRSLDDLETVIAFFEARAGQMHAFRWKDWSDFKSCRPSASPAPTDQLLGMGDETTATFQLVKHYGTGGDTYARPITRPVAGTVQVAVGGSPVTEGVEWSVDTATGMVTFTHPPDVGGEVTAGFEFDVPVRFDTDRIETSLASFNAGEVPDLPVVEVRPEGHHHHHH”: the “soluble on expression in E. coli” value is “soluble”.

Turning to “MSLFLSNVILHQLRKNDNDELVVNYRAESLRNDTSTENLVAELHRVFNAKAGKGFGCFKSDSEFQLWLQEMRRGTLPFYEFSQQSAQRLKNELAKYPFADEGILVMAEYQSLATDYLFIGLLPLNQSLKVTEGLDISATDYLDINKMDIVARIDLSSYETDKESKRYLSYIKGRVGRKVADFFLDFLQADIGLDTKQQNQVLMQAVEDFCADAKFEKEEVISYKKQVYEYCNDQIKAGDEVRVQELSGELPPSNEGVNFFDFTREQGYQLEESFPADRSTVRKLTKYVGAGGGLNLSFDSLLLGERVFYDPETDTLTIKGTPPNLEHHHHHH”, the “soluble on expression in E. coli” value is reported as “not soluble”.
